Laboratory results: patent US20050181450A1, “Novel inositol 1,4,5-trisphosphate (IP3) receptor-binding protein and an IP3 indicator” (priority 2002, published 2005)

Tests used:
Type in all cases: binding
IP3R1 = target: T1, IP3R1 (Mus musculus, UniProt P11881, N1264K/P2675L); experiment: Co-immunoprecipitation from mouse cerebellar crude microsome; conditions: detergent extract of mouse cerebellar crude microsome
T1 construct: from tissue; host or cells: mouse cerebellum, detergent extract of crude microsome
T1 sequence (P11881 whole entry N1264K/P2675L): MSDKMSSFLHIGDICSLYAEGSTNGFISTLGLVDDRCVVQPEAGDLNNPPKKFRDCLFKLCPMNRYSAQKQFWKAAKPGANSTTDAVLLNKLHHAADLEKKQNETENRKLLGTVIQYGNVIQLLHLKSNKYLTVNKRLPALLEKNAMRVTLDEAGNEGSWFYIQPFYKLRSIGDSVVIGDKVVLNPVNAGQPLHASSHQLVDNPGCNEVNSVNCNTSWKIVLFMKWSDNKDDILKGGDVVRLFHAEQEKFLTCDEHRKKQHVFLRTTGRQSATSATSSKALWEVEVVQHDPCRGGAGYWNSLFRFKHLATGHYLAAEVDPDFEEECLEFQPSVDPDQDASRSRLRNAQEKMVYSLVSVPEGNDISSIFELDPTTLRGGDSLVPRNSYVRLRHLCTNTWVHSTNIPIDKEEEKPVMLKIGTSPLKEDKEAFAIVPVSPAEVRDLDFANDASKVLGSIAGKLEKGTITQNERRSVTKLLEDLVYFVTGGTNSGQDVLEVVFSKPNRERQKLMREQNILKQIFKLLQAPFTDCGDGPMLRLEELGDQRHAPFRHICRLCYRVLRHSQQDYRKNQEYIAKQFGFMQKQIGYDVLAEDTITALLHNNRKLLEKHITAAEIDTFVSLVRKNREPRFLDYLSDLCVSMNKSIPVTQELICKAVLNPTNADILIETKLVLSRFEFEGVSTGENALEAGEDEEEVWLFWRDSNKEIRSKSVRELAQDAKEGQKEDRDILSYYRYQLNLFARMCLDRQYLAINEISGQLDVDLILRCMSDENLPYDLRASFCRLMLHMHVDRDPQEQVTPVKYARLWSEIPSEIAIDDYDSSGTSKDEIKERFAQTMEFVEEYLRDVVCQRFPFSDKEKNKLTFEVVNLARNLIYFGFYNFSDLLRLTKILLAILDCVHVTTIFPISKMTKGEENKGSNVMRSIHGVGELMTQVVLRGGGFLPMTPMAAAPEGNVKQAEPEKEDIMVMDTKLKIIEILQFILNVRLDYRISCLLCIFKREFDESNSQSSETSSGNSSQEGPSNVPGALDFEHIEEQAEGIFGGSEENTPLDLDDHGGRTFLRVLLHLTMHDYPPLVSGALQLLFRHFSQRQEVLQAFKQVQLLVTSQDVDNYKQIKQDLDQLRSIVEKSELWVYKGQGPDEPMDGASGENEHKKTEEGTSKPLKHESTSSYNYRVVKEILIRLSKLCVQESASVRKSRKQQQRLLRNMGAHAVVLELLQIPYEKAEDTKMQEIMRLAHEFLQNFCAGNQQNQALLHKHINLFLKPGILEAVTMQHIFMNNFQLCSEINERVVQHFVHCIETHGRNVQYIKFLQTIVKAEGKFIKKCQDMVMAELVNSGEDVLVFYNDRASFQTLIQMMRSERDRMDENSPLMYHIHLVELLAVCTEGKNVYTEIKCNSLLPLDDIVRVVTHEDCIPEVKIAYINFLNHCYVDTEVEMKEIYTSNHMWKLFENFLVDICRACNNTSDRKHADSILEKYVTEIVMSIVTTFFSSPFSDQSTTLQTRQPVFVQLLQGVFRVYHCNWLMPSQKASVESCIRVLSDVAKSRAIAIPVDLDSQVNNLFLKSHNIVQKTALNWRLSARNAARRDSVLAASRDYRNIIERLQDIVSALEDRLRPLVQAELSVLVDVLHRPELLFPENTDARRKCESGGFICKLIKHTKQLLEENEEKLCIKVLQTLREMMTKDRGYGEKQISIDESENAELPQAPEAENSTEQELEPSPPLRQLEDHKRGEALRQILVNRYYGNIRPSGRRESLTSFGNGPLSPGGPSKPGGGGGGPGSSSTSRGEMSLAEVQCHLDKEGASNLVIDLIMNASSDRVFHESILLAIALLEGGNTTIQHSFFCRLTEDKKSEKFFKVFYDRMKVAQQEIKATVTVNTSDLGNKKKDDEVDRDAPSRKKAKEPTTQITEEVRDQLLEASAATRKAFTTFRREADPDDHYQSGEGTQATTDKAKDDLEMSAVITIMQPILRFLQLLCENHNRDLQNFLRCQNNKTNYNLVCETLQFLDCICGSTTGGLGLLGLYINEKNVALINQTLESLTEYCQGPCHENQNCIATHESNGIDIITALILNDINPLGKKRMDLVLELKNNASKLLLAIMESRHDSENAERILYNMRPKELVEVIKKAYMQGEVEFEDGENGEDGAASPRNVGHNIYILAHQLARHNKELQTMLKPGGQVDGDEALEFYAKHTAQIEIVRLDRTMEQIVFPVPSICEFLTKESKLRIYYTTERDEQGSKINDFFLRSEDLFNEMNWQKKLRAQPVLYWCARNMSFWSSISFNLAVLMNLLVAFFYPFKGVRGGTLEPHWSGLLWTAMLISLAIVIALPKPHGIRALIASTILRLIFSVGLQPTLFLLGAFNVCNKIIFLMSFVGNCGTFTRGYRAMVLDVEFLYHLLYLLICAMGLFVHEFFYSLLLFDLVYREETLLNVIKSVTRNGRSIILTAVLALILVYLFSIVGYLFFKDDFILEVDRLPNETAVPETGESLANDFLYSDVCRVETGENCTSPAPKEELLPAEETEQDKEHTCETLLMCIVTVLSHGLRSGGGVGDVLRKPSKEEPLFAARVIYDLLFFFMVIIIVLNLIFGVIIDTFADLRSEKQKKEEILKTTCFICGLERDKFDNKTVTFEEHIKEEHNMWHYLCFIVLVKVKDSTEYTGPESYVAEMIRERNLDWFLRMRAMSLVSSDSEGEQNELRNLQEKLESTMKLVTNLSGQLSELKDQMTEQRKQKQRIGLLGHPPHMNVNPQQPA
Description: The detergent extract of mouse cerebellar crude microsome was immunoprecipitated with anti-IRBIT antibody or control antibody. The immunoprecipitates were subjected to SDS-PAGE followed by Western blotting with anti-IP3R1 antibody (upper panel) or anti-IRBIT (lower panel) antibody.
Detergent-solubilized extract from the crude microsome was prepared with 1% Nonidet P-40-containing 50 mM Hepes (pH 7.4), 1 mM MgCl2, and protease inhibitors for 30 minutes at 4° C., and centrifuged at 20,000×g for 30 minutes. The supernatant was diluted 10-fold in an immunoprecipitation buffer (10 mM Hepes (pH 7.4), 150 mM NaCl, 1 mM MgCl2, and 1% Nonidet P-40) and incubated with rabbit anti-IRBIT antibody (3 μg) or control rabbit IgG (3 μg) for 2 hours at 4° C. Protein G Sepharose 4 fast flow (Amersham Pharmacia Biotech) was added for reaction with immune complexes for 2 hours at 4° C. Resins were washed three times with an immunoprecipitation buffer and subjected to Western blotting with anti-IRBIT antibody or mouse anti-IP3R1 antibody KM1112 (47).

[1] = target: T2, GST-EL (mouse IP3R1 amino acids 1-2217) (Mus musculus, UniProt P11881, N1264K); experiment: GST pulldown with GST-EL
T2 construct: construct a GST-IP3R1 (1-2217) vector (termed GST-EL); made in house; host or cells: Sf9 cells (baculovirus)
T2 sequence (P11881 1-2217 N1264K): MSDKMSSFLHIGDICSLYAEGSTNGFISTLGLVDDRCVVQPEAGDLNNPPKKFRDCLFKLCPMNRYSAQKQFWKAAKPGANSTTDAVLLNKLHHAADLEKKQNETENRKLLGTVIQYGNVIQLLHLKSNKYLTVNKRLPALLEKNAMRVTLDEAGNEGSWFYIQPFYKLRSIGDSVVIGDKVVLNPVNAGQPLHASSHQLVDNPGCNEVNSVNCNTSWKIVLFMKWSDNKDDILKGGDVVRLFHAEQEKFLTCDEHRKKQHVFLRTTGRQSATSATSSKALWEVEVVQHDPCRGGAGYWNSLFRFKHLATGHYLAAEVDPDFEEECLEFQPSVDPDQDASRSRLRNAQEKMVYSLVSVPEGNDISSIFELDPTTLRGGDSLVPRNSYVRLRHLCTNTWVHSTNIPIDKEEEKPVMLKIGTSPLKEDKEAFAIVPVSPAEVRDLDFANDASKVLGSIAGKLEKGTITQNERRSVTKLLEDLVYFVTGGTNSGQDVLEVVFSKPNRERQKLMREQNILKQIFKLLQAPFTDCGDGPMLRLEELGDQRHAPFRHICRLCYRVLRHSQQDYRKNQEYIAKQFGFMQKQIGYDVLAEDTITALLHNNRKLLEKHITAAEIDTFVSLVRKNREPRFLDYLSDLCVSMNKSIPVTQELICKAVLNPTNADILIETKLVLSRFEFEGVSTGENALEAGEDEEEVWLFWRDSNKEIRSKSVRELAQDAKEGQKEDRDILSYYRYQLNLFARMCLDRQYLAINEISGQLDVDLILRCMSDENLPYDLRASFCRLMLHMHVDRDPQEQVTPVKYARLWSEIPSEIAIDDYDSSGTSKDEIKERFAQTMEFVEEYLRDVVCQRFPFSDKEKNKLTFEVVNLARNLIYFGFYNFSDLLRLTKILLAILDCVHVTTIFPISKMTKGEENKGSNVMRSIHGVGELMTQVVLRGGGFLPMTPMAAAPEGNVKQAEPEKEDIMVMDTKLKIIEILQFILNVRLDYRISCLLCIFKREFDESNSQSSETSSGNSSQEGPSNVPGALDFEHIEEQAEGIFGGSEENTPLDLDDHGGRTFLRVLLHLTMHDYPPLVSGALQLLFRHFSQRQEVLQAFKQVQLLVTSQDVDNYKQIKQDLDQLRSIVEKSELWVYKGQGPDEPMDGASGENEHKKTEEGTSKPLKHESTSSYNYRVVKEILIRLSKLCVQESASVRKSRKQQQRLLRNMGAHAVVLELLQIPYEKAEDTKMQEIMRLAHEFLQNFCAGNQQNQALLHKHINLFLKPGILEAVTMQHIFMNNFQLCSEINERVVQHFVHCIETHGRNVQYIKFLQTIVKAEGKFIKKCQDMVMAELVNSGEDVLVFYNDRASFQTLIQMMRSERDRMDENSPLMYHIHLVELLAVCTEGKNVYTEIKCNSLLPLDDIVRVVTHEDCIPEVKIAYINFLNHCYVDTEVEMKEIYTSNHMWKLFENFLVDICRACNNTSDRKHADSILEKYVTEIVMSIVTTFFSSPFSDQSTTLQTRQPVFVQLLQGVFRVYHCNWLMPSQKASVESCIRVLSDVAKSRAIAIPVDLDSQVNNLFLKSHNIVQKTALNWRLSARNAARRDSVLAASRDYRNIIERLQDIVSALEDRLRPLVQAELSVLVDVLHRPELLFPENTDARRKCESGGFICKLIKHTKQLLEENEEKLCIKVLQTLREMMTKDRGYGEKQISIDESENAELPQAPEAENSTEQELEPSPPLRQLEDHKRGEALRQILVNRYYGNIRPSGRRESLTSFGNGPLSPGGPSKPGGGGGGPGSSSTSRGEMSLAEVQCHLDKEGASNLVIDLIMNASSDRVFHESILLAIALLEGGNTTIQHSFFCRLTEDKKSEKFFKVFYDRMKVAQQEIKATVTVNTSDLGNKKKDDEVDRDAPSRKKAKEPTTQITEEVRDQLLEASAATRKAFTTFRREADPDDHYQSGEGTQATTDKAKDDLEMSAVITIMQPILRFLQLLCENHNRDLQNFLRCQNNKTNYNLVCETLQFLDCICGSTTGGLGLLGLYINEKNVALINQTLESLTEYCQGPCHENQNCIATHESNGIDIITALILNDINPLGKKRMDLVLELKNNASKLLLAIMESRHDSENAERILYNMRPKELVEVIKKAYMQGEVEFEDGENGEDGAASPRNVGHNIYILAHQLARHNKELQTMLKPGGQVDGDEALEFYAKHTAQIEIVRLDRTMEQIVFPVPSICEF
Description: Mouse cerebellar cytosolic fraction was diluted 2-fold with 10 mM Hepes (pH 7.4), 200 mM NaCl, 2 mM EDTA, 1 mM 2-ME and 0.02% Triton X-100. The high salt extract was diluted 5-fold with 10 mM Hepes (pH 7.4), 2 mM EDTA, 1 mM 2-ME and 0.01% Triton X-100. The diluted fractions (the final NaCl concentration of both fractions was 100 mM) were incubated with 20 μg of GST-EL or GST for 2 hours at 4° C. After adding 10 μl of glutathione-Sepharose and another 2 hours of incubation, the resins were washed 5 times with a wash buffer (10 mM Hepes (pH 7.4), 100 mM NaCl, 2 mM EDTA, 1 mM 2-ME, and 0.01% Triton X-100), and bound proteins were eluted with 20 mM glutathione.
The eluted proteins were analyzed by Western blotting with anti-IRBIT antibody. For dephosphorylation, the diluted high salt extract was incubated in the presence of or the absence of Escherichia coli alkaline phosphatase (Toyobo) with 2 mM MgCl2 for 30 minutes at 37° C. 5 mM EDTA was added, and then the resultant was subjected to pulldown assay as described above.
For the determination of the IP3R1-interacting region of IRBIT, Cos-7 cells expressing GFP-tagged full-length IRBIT or its truncated mutants were lysed in a lysis buffer (10 mM Hepes (pH7.4), 100 mM NaCl, 2 mM EDTA, 1 mM 2-ME, 0.5% Nonidet P-40, and protease inhibitor) for 30 minutes at 4° C., followed by centrifugation (100,000×g, 30 minutes). The supernatants were subjected to pulldown assay with GST-EL or GST as described above, and bound proteins were subjected to immunoblot analysis with anti-GFP antibody (Medical & Biological Laboratories).

[2] = target: T3, type II phosphatidylinositol phosphate kinase β (Homo sapiens, UniProt P78356); experiment: Co-immunoprecipitation in Cos-7 cells with Myc-PIPKII β; conditions: overexpressing Cos-7 cells
T3 construct: expressed in transfected cells; host or cells: Cos-7
T3 sequence (P78356 1-416): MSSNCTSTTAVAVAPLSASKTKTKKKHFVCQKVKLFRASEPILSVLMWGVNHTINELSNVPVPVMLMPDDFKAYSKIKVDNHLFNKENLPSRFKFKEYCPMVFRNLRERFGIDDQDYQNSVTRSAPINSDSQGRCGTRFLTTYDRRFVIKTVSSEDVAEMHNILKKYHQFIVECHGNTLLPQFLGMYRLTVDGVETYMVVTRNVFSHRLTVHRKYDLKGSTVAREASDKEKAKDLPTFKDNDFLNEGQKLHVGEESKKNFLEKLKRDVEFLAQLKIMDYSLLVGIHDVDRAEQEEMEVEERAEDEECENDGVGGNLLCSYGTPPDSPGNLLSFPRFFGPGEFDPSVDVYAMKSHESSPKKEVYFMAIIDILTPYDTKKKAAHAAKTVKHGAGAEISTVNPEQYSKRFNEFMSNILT
Description: (§1) (A and B) IRBIT was transfected into Cos-7 cells with Myc-tagged type II phosphatidylinositol phosphate kinase α, β or γ (PIPKII α, β or γ). After two days, cells were lysed in lysis buffer, followed by centrifugation (100,000×g, 30 min). The supernatants were incubated with 3 μg of anti-IRBIT antibody, rabbit IgG, mouse anti-Myc antibody, or mouse IgG for 1 h at 4° C. After adding 5 μl of Protein G beads and another 1-h incubation, the beads were washed five times with lysis buffer and analyzed by Western blotting with anti-IRBIT antibody or HRP conjugated anti-Myc antibody. Immunoprecipitation of Myc-PIPKII α, β or γ with anti-Myc antibody co-precipitated IRBIT (A). In the reciprocal experiments, immunoprecipitation of IRBIT with anti-IRBIT antibody precipitated Myc-PIPKII α, β or γ.
as §1, with “IRBIT” for “(A and B) IRBIT”, “antibody.” for “antibody. Immunoprecipitation of Myc-PIPKII α, β or γ with anti-Myc antibody co-precipitated IRBIT (A). In the reciprocal experiments, immunoprecipitation of IRBIT with anti-IRBIT antibody precipitated Myc-PIPKII α, β or γ.”

[3] = target: T4, type II phosphatidylinositol phosphate kinase α (Homo sapiens, UniProt P48426); experiment: Co-immunoprecipitation in Cos-7 cells with Myc-PIPKII α; conditions: overexpressing Cos-7 cells
T4 construct: expressed in transfected cells; host or cells: Cos-7
T4 sequence (P48426 1-406): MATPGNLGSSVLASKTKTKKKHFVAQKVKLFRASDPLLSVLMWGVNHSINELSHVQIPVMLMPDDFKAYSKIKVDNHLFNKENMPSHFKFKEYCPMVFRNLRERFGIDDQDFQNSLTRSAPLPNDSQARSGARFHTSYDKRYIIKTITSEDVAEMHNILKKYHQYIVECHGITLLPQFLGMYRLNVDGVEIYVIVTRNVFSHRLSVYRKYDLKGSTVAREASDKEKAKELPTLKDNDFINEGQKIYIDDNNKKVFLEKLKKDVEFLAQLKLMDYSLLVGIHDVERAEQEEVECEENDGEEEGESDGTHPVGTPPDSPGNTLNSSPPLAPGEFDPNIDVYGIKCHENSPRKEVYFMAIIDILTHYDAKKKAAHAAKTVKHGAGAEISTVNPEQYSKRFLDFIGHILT
Description: as §1
as §1, with “IRBIT” for “(A and B) IRBIT”, “antibody.” for “antibody. Immunoprecipitation of Myc-PIPKII α, β or γ with anti-Myc antibody co-precipitated IRBIT (A). In the reciprocal experiments, immunoprecipitation of IRBIT with anti-IRBIT antibody precipitated Myc-PIPKII α, β or γ.”

B1: IRBIT: novel IP3 receptor-binding protein of 530 amino acids, SEQ ID NO: 1 (protein, listed as Mus musculus)
chain: MSMPDAMPLPGVGEELKQAKEIEDAEKYSFMATVTKAPKKQIQFADDMQEFTKFPTKTGRRSLSRSISQSSTDSYSSAASYTDSSDDEVSPREKQQTNSKGSSNFCVKNIKQAEFGRREIEIAEQDMSALISLRKRAQGEKPLAGAKIVGCTHITAQTAVLIETLCALGAQCRWSACNIYSTQNEVAAALAEAGVAVFAWKGESEDDFWWCIDRCVNMDGWQANMILDDGGDLTHWVYKKYPNVFKKIRGIVEESVTGVHRLYQLSKAGKLCVPAMNVNDSVTKQKFDNLYCCRESILDGLKRTTDVMFGGKQVVVCGYGEVGKGCCAALKALGAIVYITEIDPICALQACMDGFRVVKLNEVIRQVDVVITCTGNKNVVTREHLDRMKNSCIVCNMGHSNTEIDVTSLRTPELTWERVRSQVDHVIWPDGKRVVLLAEGRLLNLSCSTVPTFVLSITATTQALALIELYNAPEGRYKQDVYLLPKKMDEYVASLHLPSFDAHLTELTDDQAKYLGLNKNGPFKPNYYRY
IP3R1
  co-immunoprecipitation of IP3R1 with anti-IRBIT antibody: co-immunoprecipitated
[1]; IRBIT in high salt extract of mouse cerebellar crude microsome
  interaction with GST-EL: interacted with GST-EL
[1]; IRBIT in mouse cerebellar cytosolic fraction
  interaction with GST-EL: did not interact with GST-EL
[1]; high salt extract treated with alkaline phosphatase
  interaction with GST-EL: did not interact with GST-EL
[2]
  interaction with PIPKII β: interacted
[3]
  interaction with PIPKII α: interacted
